Key:
[1] = target: T1, Recombinant human IL-1beta (rhIL-1b) (human, UniProt P01584 117-269); assay: cell-based or functional assay
IL-1β R11A mutant [2] = target: T2, IL-1β R11A mutant (human, UniProt P01584 117-269); assay: binding to site-directed IL-1β mutant; X = abrogation of binding
T2 construct: site-directed mutant

IL-1β H30A mutant [3] = target: T3, IL-1β H30A mutant (human, UniProt P01584 117-269); assay: as above
T3 construct: site-directed mutant

[4] = target: T1, Recombinant human IL-1beta (rhIL-1b); assay: Biacore, Medium Resolution; IL-1β in solution; medium-resolution Biacore
[5] = target: T1, Recombinant human IL-1beta (rhIL-1b); assay: cell-based or functional assay; remark: listed apart in the source
[6] = target: T1, Recombinant human IL-1beta (rhIL-1b); assay: Biacore, Low Resolution screen
[7] = target: T1, Recombinant human IL-1beta (rhIL-1b); assay: Biacore low-res, mAb captured, 25C; IL-1β in solution (118 nM) over captured mAb; low-resolution Biacore, 25 C
IL-1β H30A mutant [8] = target: T3, IL-1β H30A mutant; assay: binding to site-directed IL-1β mutants
[9] = target: T1, Recombinant human IL-1beta (rhIL-1b); assay: Biacore high-res, mAb amine-coupled, 23C
[10] = target: T1, Recombinant human IL-1beta (rhIL-1b); assay: KinExA, single KD-controlled titration
IL-1β R4A mutant = target: T4, IL-1β R4A mutant (human, UniProt P01584 117-269); assay: binding to site-directed IL-1β mutant; X = abrogation of binding
T4 construct: site-directed mutant

[11] = target: T1, Recombinant human IL-1beta (rhIL-1b); assay: cell-based or functional assay; remark: listed apart in the source
[12] = target: T1, Recombinant human IL-1beta (rhIL-1b); assay: cell-based or functional assay; remark: listed apart in the source
[13] = target: T1, Recombinant human IL-1beta (rhIL-1b); assay: KinExA, dual curve analysis
[14] = target: T1, Recombinant human IL-1beta (rhIL-1b); assay: KinExA, triple curve analysis
[15] = target: T1, Recombinant human IL-1beta (rhIL-1b); assay: calculated as kon x KD from KinExA
[16] = target: T1, Recombinant human IL-1beta (rhIL-1b); assay: KinExA direct kinetic method
[17] = target: T1, Recombinant human IL-1beta (rhIL-1b); assay: Biacore low-res, mAb captured, 25C; poor fit to 1:1 model; IL-1β in solution (118 nM) over captured mAb; low-resolution Biacore, 25 C; poor fit to 1:1 model
IL-1β R11A mutant [18] = target: T2, IL-1β R11A mutant; assay: binding to site-directed IL-1β mutants
[19] = target: T1, Recombinant human IL-1beta (rhIL-1b); assay: Biacore high-res, mAb amine-coupled, 23C, long association and dissociation, IL-1β 55 pM
[20] = target: T1, Recombinant human IL-1beta (rhIL-1b); assay: Biacore, Medium Resolution; IL-1β in solution; medium-resolution Biacore; complex kinetics
[21] = target: T1, Recombinant human IL-1beta (rhIL-1b); assay: Biacore, Medium Resolution; complex kinetics; IL-1β in solution; medium-resolution Biacore; complex kinetics
[22] = target: T1, Recombinant human IL-1beta (rhIL-1b); assay: Biacore low-res, mAb captured, 25C; IL-1β in solution (118 nM) over captured mAb; low-resolution Biacore, 25 C; poor fit to 1:1 model
[23] = target: T1, Recombinant human IL-1beta (rhIL-1b); assay: Biacore, Low Resolution screen; complex kinetics

EC50, inhibition of IL-1β-induced IL-6 production in MRC-5 cells [1]	binding result (IL-1β R11A mutant [2])	Kd [4]	koff [4]	kon [4]	% IL-6 production, supernatant 1:5 dilut. [5]	% IL-6 production, supernatant 1:10 dilut. [5]	% IL-6 production, supernatant 1:20 dilut. [5]	Kd [6]	Kd [7]	koff [7]	kon [7]	binding result (IL-1β H30A mutant [8])	Kd [10]	binding result (IL-1β R4A mutant)	In Vivo Potency EC50, inhibition of IL-6 induced in mice by human IL-1β [11]	EC50, inhibition of IL-1β-induced IL-8 production in human whole blood [12]	Kd [14]	Binder	further results
11600 pM	no binding	140 pM	0.00035 s⁻¹	2.5e+06 M⁻¹ s⁻¹	5%	21%	36%	370 pM	370 pM	0.00085 s⁻¹	2.3e+06 M⁻¹ s⁻¹	–	–	–	–	–	–	9.54.1 (antibody, human IgG4, V domains shown, lambda; also called 9.54.2) VH: QVQLVESGGGVVQPGRSLRLSCAASGFTFSSFGMHWVRQAPGKGLEWVAVIWYDGSNKYYADSVKGRFTISRDNSKNTLYLQMNSLRAEDTAVYYCARDPNYDILTGYYYYGMDVWGQGTTVTVS VL: SSELTQDPAVSVALGQTVRITCQGDILRTYYASWYQQKPGQAPVLVIYGKNDRPSGIPDRFSGSSSGNTASLTITGAQAEDEADYYCDSRDNTVTHLVFGGGTKLTVL	binding result (IL-1β H30A mutant [3]): no binding
4 pM	–	–	–	–	–	–	–	–	–	–	–	–	0.041 pM	–	8 pmoles/mouse	69 pM	0.204 pM	9.5.2 IgG2 (antibody, V domains shown, also called mAb 9.5.2 (IgG2 isotype); 9.5.2 IgG2λ) VH: EVQLVESGGGLVKPGRSLRLSCTGSGFTFGDYALNWFRQAPGMGLEWVGFIRGKAYGGTTEYAASVKGRFTISRDDSKSIAYLQMNSLKTEDTAVYYCNREVEYCRSSENYCYGMDVWGQGTTVTVS VL: not shown	–

Second part, the binder before the results:

Binder	EC50, inhibition of IL-1β-induced IL-6 production in MRC-5 cells [1]	binding result (IL-1β R11A mutant [2])	Kd [4]	koff [4]	kon [4]	% IL-6 production, supernatant 1:5 dilut. [5]	% IL-6 production, supernatant 1:10 dilut. [5]	% IL-6 production, supernatant 1:20 dilut. [5]	Kd [6]	Kd [7]	koff [7]	kon [7]	binding result (IL-1β H30A mutant [8])	Kd [10]	binding result (IL-1β R4A mutant)	In Vivo Potency EC50, inhibition of IL-6 induced in mice by human IL-1β [11]	EC50, inhibition of IL-1β-induced IL-8 production in human whole blood [12]	Kd [14]	further results
5.5.1 (antibody, IgG4, V domains shown, lambda; also called mAb 5.5.1; Ab 5.5.1) VH: QVQLVESGGGVVQPGRSLRLSCAASGFTFSSYGMHWVRQAPGKGLEWVAVIWYDGDNKYYADSVQGRFTISRDNSKNTLYLQMNSLRPEDTAVYYCARERSSSWYFDYWGQGTLVTVSS VL: QSALTQPASVSGSPGQSITISCTGTSSDVGSYNLVSWYQQHPGKAPKLMIYEVSKRPSGISNRFSGSKSGNTASLTISGLQAEDEADYYCCSYAGSSTWVFGGGTKLTVL	216 pM	no binding	180 pM	0.00057 s⁻¹	3.1e+06 M⁻¹ s⁻¹	1%	3%	6%	278 pM	278 pM	0.0005 s⁻¹	1.8e+06 M⁻¹ s⁻¹	binds	19 pM	no binding	51 pmoles/mouse	1670 pM	–	Kd [9]: 44.7 pM; koff [9]: 0.000704 s⁻¹; kon [9]: 1.57e+07 M⁻¹ s⁻¹; Kd [13]: 20 pM
9.5.2 IgG1 (antibody, V domains shown) VH: EVQLVESGGGLVKPGRSLRLSCTGSGFTFGDYALNWFRQAPGMGLEWVGFIRGKAYGGTTEYAASVKGRFTISRDDSKSIAYLQMNSLKTEDTAVYYCNREVEYCRSSENYCYGMDVWGQGTTVTVS VL: not shown	1 pM	–	–	–	–	–	–	–	–	–	–	–	–	–	–	5 pmoles/mouse	106 pM	–	–
9.5.2 IgG4 (antibody, V domains shown, also called mAb 9.5.2; mAb 9.5.2 (IgG4 isotype)) VH: EVQLVESGGGLVKPGRSLRLSCTGSGFTFGDYALNWFRQAPGMGLEWVGFIRGKAYGGTTEYAASVKGRFTISRDDSKSIAYLQMNSLKTEDTAVYYCNREVEYCRSSENYCYGMDVWGQGTTVTVS VL: not shown	4 pM	–	–	–	–	0%	0%	0%	–	–	–	–	binds	0.04 pM	no binding	5 pmoles/mouse	135 pM	0.181 pM	koff [15]: 6.1e-07 s⁻¹; kon [16]: 3.4e+06 M⁻¹ s⁻¹; Kd [17]: 1640 pM; binding result (IL-1β R11A mutant [18]): binds; Kd [19]: 1.5 pM; koff [19]: 1.1e-06 s⁻¹; kon [19]: 710000 M⁻¹ s⁻¹; koff [20]: 0.00035 s⁻¹; kon [20]: 2.6e+06 M⁻¹ s⁻¹; Kd [21]: 130 pM; koff [22]: 0.0018 s⁻¹; kon [22]: 1.1e+06 M⁻¹ s⁻¹; Kd [23]: 1640 pM

Source: patent publication US20070065439A1 (Amgen, published 2007)
